The text below walks through data of US20190367589A1 (CYTOMX THERAPEUTICS, published 2019).

Usually koff stands for a measure of how fast the partners let go of each other. A high value points to fast dissociation.

Residue numbers refer to the chain shown, from its start.

The target of assay [1] is T1, 4D11 Fab.
T1 construct: C-terminally His-tagged Fab from the periplasm of E. coli; also called anti-Jagged Fab 4D11; Fab 4D11
The assay is described as follows: FACS of bacteria displaying the peptide, labeled Fab 4D11, normalized to expression.

Assay [2] addresses T1, 4D11 Fab. The assay is described as follows: FACS of bacteria displaying the peptide.
Assay [3] deals with T2, anti-Jagged antibody 4D11 (fully human IgG).
T2 construct: Human IgG1 kappa from HEK-293 cells; Labeled with Alexa Fluor 680 in the tissue stainings, biotinylated in the peptide screens; also called anti-Jagged 4D11; 4D11 antibody
The assay is described as follows: FACS of bacteria displaying the peptide.

Assay [4] has as its target T3, human Jagged 1-Fc (extracellular domain of human Jagged 1 fused to the Fc portion of human IgG1); R&D Systems … (human, UniProt P78504 34-1067).
T3 construct: extracellular domain; Bought reagent; also called hJag1; h Jagged 1; not shown: Fc portion of human IgG1
The assay is described as follows: BLI (Octet), Jagged-Fc on anti-human Fc tips, Fab in solution. The method, then: Off rates for individual Fabs were measured using an Octet (ForteBio, Menlo Park, Calif.). […] Following a wash, the loaded tips were exposed to 25 μM Fab until binding had reached equilibrium. The tips were then removed to a fresh solution with no Fab, and the rate of Fab dissociation was measured.

T2 sequence (VH, as listed by the source, chain 1 of 2): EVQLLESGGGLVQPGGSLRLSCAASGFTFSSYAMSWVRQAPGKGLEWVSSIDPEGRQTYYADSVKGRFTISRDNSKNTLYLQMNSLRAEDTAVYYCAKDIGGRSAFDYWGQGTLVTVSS
T2 sequence (VL, as listed by the source, chain 2 of 2): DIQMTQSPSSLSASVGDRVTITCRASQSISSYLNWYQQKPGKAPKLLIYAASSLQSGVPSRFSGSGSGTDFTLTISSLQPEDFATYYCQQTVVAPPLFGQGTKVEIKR

Regarding GCNIWANGGDCRGWIDNIDG [masking moiety JS5887], the binding result in the assay with 4D11 Fab [1] is “binds”. SCSLWTSGSCLPHSP [masking moiety JS4897]: the binding result (with 4D11 Fab [2]; in assay [3]) was “binds” each time.

B1: 6F8 Fab (Fab, V domains shown)
VH: EVQLLESGGGLVQPGGSLRLSCAASGFTFSSYAMSWVRQAPGKGLEWVSSIDEMGWQTYYADSVKGRFTISRDNSKNTLYLQMNSLRAEDTAVYYCAKSAAAFDYWGQGTLVTVSS
VL: DIQMTQSPSSLSASVGDRVTITCRASQSISSYLNWYQQKPGKAPKLLIYAASSLQSGVPSRFSGSGSGTDFTLTISSLQPEDFATYYCQQALVAPLTFGQGTKVEIKR
notes: C-terminally His-tagged Fab from the periplasm of E. coli; As printed its variable domains equal those of 6B7
B1 yielded a koff in assay [4] of 0.0012 s⁻¹.

B2: anti-Jagged 32 Fab (Fab, V domains shown)
VH: B1 VH with D52E, E53Q
VL: DIQMTQSPSSLSASVGDRVTITCRASQSISSYLNWYQQKPGKAPKLLIYAASLQSGVPSRFSGSGSGTDFTLTISSLQPEDFATYYCQQTVVAPLTFGQGTKVEIKR
notes: Fab expressed in E. coli; also called Jag32
As to B2, the koff in assay [4] is 0.027 s⁻¹.

B3: 4E7 Fab (Fab, V domains shown)
VH: B1 VH with D52E, Y59K
VL: B1 VL with A91S
notes: C-terminally His-tagged Fab from the periplasm of E. coli
In assay [4], B3 displayed a koff of 0.00069 s⁻¹.

B4: 6B7 Fab (Fab, V domains shown)
VH: B1 VH
VL: B1 VL
notes: as for B3
In assay [4], B4 yielded a koff of 0.00035 s⁻¹. On to GCNIWLNGGDCRGWVDPLQG [masking moiety JS5872], for which the binding result with 4D11 Fab [1] is listed as “binds”. Turning to GCNIWLVGGDCRGWIGDTNG [masking moiety JS5877], the binding result with 4D11 Fab [1] is reported as “binds”. Regarding GCNIWLVGGDCRGWIEDSNG [masking moiety JS5885], in the assay with 4D11 Fab [1], the binding result was “binds”.

YCLQLPHYMQAMCGR [masking moiety JS4899]: the binding result (with 4D11 Fab [2]; in assay [3]) was “binds” throughout. In the case of QLGLPAYMCTFECLR [masking moiety JS4879], the binding result (with 4D11 Fab [2]; in assay [3]) was “binds” each time. For the molecule CNLWVSGGDCGGLQG [masking moiety JS4896], the binding result (with 4D11 Fab [2]; in assay [3]) was “binds” each time. As to PWCMQRQDFLRCPQP [masking moiety JS4874], the binding result (with 4D11 Fab [2]; in assay [3]) was “binds” in each case. For CFLYSCTDVSYWNNT [masking moiety JS4906], the binding result (in the assay with 4D11 Fab [2]; in assay [3]) was “binds” throughout. Take CNIWLVGGDCRGWQG [masking moiety JS5342]: the binding result with 4D11 Fab [1] is on record as “binds”.
